The record followed here is the nanobody polyreactivity screen of Harvey et al. (2022).

This series can be described thus: yeast display, Sf9 membrane polyspecificity reagent, FACS + sequencing; frameworks hold sequencing errors. The method, boiled down: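 Sorting gates, low and high (top ~1%), were placed on anti-HA fluorescence to track expression and on streptavidin fluorescence to track reagent binding. A clone's polyreactivity label is taken from the gate it came out of. The reagent was 10% biotinylated, detergent-solubilized Sf9 membrane, applied for 1 hour at 4 °C to galactose-induced yeast display cells.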
As to “QVQLVESGGGLVQAGGSLRLSCAASGSTFHRYAMGWYRQAPGKERQLVARINGSGGSTYYADSVKGRFTISRDNAKNTVYLQMNSLKPEDTAVYYCNARAVSVRASTKVPSGLYDFWGQGTQVTVSS”, the “polyreactivity (PSR sort gate)” value is on record as “low polyreactivity”.

In the case of “QVQLVESGGGLVQAGGSLRLSCAASGSTFHRYPMGWYRQAPGKERELVAAISVRTGSTYYADSVKGRFTISRDNAKNTDYLQINRLTPEDTAVYYCAVGKQINGKIYRYDYWGQGTQVTVSS”, the “polyreactivity (PSR sort gate)” value is listed as “high polyreactivity”.

Turning to “QVQLVESGGGLVQAGGSLRLSCAASGSTFHSNAMGWYRQAPGKEREVVATISFGGGSKYYADSVKGRFTISRDNAKNTVYLQMNSLKPEDTAVYYCARDQTFGPCPYVWYYYPGYDYWGQGTQVTVSS”, the “polyreactivity (PSR sort gate)” value is reported as “low polyreactivity”.

Regarding “QVQLVESGGGLVQAGGSLRLSCAASGSTFHSYAMGWYRQAPGKERELVAGITWGGGTYYADSVKGRFTISRDNAKNTVYLQMNSLKPEDTAVYYCAALSYVGSNVYTGAPAAPYDYWGQGTQVTVSS”, the “polyreactivity (PSR sort gate)” value is on record as “low polyreactivity”.

Take “QVQLVESGGGLVQAGGSLRLSCAASGSTFHTNAMGWYRQAPGKERELVDAISRSGTSTYYADSVKGRFTISRDNAKNSVYCQMNSLNPEDTAVYYCAAYGPRVNGEIGREYYYWGQGTQVTVSS”: the “polyreactivity (PSR sort gate)” value is “low polyreactivity”.

For the sequence “QVQLVESGGGLVQAGGSLRLSCAASGSTFHTYGMGWYRQAPGKERELVSAIDLSDGSTYYADSVKGRFTISRDNAKNTVYLQMNSLKPEDTAVYYCNADYFPKPYRPDDYWGQGTQVTVSS”, the “polyreactivity (PSR sort gate)” value is “low polyreactivity”.

Take “QVQLVESGGGLVQAGGSLRLSCAASGSTFHVYAMGWYRQAPGKERELVAGITSSGYSTYYADSVKGRFTISRDNAKNTVYLKMNSLKPEETAVYYCNADIRGPYYYHRYDYWGQGTLVTVSS”: the “polyreactivity (PSR sort gate)” value is “low polyreactivity”.

For “QVQLVESGGGLVQAGGSLRLSCAASGSTFHWYDMGWYRPAPGKERELVAGINSSGDGTYYADSVKGRFTISRDNAKNTVYLQMNSLKPEDTAVYYCAAPWWYYGVPYQTNKYDYWGQGTQVTVSS”, the “polyreactivity (PSR sort gate)” value is “low polyreactivity”.

In the case of “QVQLVESGGGLVQAGGSLRLSCAASGSTFHYNAMGWYRQAPGKERELVAAIDNGGRTNYADSVKGRFTISRDNAKNTVYLQMNSLKPEDPAVYYCATRGYFWSFTTSYYHYYYWGQGTQVTVSS”, the “polyreactivity (PSR sort gate)” value is reported as “high polyreactivity”.

“QVQLVESGGGLVQAGGSLRLSCAASGSTFIANAMGWYRQAPGKERELVAAISASGDSTYYADSVKGRFTISRDNAKNTVYLQMNSLKPEDTAVYYCAADTSVHRHDYWGQGTQVTVSS”: the “polyreactivity (PSR sort gate)” value was “low polyreactivity”.

As for “QVQLVESGGGLVQAGGSLRLSCAASGSTFIANAMGWYSQAPGKERELVAGITRGGSTYYADSVKGRFTISRDNAKHTVYLQMNSLNPEDTAVYYCATDLRSYYYQWTYYHWGQATQVTVSS”, the “polyreactivity (PSR sort gate)” value is on record as “low polyreactivity”.

For the sequence “QVQLVESGGGLVQAGGSLRLSCAASGSTFIDYAMGWYRQAHGKERELVAGISSGDSTDYADSVKGRFTISRDNAKNTVYLQMNSLKPEDTAVYYCNADWNPTERWFYWYTPLGYDYWGQGTQVTVSS”, the “polyreactivity (PSR sort gate)” value is given as “low polyreactivity”.

As to “QVQLVESGGGLVQAGGSLRLSCAASGSTFIFNAMGWYRQAPGKERELVAAISWRLGRTYYADSVKGRFTISRDNAKKTVYLQMNSLKPEDTAVYYCARDYSRHKGDYWGQGTQVTVSS”, the “polyreactivity (PSR sort gate)” value is recorded as “low polyreactivity”.

“QVQLVESGGGLVQAGGSLRLSCAASGSTFIFYAMGWYRQAPGKERELVAAISSGGITNYADSVKGRFTISRDNAKNTVYLQMNSLKPEDTAVYYCAKRKGPRWSRQYRYPYYSWGQGTQVTVSS”: the “polyreactivity (PSR sort gate)” value is on record as “high polyreactivity”.

Take “QVQLVESGGGLVQAGGSLRLSCAASGSTFIIYAMGWYRQEPGKEREFVATITGRGGRTYYAVSVKGRFTISRDNAKNTVYLQMNSLKPEDTAVYYCAKGLGSGQEIYGYDYGGQGTQVTVSS”: the “polyreactivity (PSR sort gate)” value was “high polyreactivity”.

As to “QVQLVESGGGLVQAGGSLRLSCAASGSTFILNAMGWYRQAPGKERELVAAISRSGGNTYYADSVKGRFTISRDIAKNTVYLQMNSLKPEDTAVYYCAATRRSHYYYWGQGTQVTVSS”, the “polyreactivity (PSR sort gate)” value is “high polyreactivity”.

Turning to “QVQLVESGGGLVQAGGSLRLSCAASGSTFIPNAMGWYRQAPGKERELVAAISTGGSTNYADSVKGRFTISRDNAKNTVYLQMNSLKPEDTAVYYCNDRRGYFNPGRRFYYWGQGTQVTVSS”, the “polyreactivity (PSR sort gate)” value is given as “low polyreactivity”.

Turning to “QVQLVESGGGLVQAGGSLRLSCAASGSTFIVKAMGWYRHAPGKERELVAAITEDGDTTYYADSVKGRFTISRDNAKKTVYLQMNSLKPEDTAVYYCAAETYYLDDYWGQGTQVTVSS”, the “polyreactivity (PSR sort gate)” value is recorded as “high polyreactivity”.

As to “QVQLVESGGGLVQAGGSLRLSCAASGSTFIVNAMGWYRQAPGKERELVAAIRRGTRTNYADSVKGRFTISRDNAKNTVYLQMNSLKPEDTAVYYCAVRGSYRGWYDYWGQGTQVTVSS”, the “polyreactivity (PSR sort gate)” value is “high polyreactivity”.

Take “QVQLVESGGGLVQAGGSLRLSCAASGSTFIVYAMGWYRQAPGKERELVAAISLDGGSTYYADSVKGRFTISRDNAKNTVYLQMNSLKPEDSAVYYCNADYYANSITYDSWGQGSQVTVSS”: the “polyreactivity (PSR sort gate)” value is reported as “low polyreactivity”.

In the case of “QVQLVESGGGLVQAGGSLRLSCAASGSTFIWYAMGWYRQAPGKERELVAAINRSGGSTYYADSVKGRFTISRDNAKNTVYLQMNSLKPEDTAVYYCAAQGGGYRGLKYYYWGQGTQVTVSS”, the “polyreactivity (PSR sort gate)” value is recorded as “high polyreactivity”.

On to “QVQLVESGGGLVQAGGSLRLSCAASGSTFIWYARGWYRQAPGKERELVAAISRSGGSTYYADSVKGRFTISRDNAKNTVYLQMNSLKPEDTAVYYCNTYPTYQYYYWGQGTQVTVSS”, for which the “polyreactivity (PSR sort gate)” value is listed as “high polyreactivity”.

Consider “QVQLVESGGGLVQAGGSLRLSCAASGSTFIYYAMGWYRKAPGKEREFVAAISYRGGSTYYADSVKGRFTISRDNAKNTVYLQMNSLKPEDTAVYYCAASYRKWNDYWGQGTQVTVSS”, for which the “polyreactivity (PSR sort gate)” value is “high polyreactivity”.

As for “QVQLVESGGGLVQAGGSLRLSCAASGSTFIYYAMVWYRQAPGKERELVASLSRSGGSTYYADSVKGRFTISRDNAKNTVYLQMNSLKPEDTAVYYCARAYRSSFNYWGQGTQVTVSS”, the “polyreactivity (PSR sort gate)” value is recorded as “high polyreactivity”.

“QVQLVESGGGLVQAGGSLRLSCAASGSTFKAYAMGWYRQAPGKERELVAAITNSDGDTYYADSVKGRFTISRDNAKNTVYLLMNSLKPEDTAVYYFNADDALRQTSDYNYWGQGTQVTVSS”: the “polyreactivity (PSR sort gate)” value is on record as “low polyreactivity”.

As to “QVQLVESGGGLVQAGGSLRLSCAASGSTFKAYAMGWYRQAPGKQRELVAAITKSGGRTYYADSVKGRFTISRDNAKNTVYLQMNSLKPEDTAVYYCAAVFRPDSSAYRYYYWGQGTQVTVSS”, the “polyreactivity (PSR sort gate)” value is on record as “high polyreactivity”.

For the sequence “QVQLVESGGGLVQAGGSLRLSCAASGSTFKGNTMGWYRQAPGKERELVAAISWRGGSTYYADSVKGRFTISRDNAKNTVYLQMNSMKPEDTAVYYCAAKSHWWWRGYYYLGQGTQVTVSS”, the “polyreactivity (PSR sort gate)” value is recorded as “high polyreactivity”.

For “QVQLVESGGGLVQAGGSLRLSCAASGSTFKGYAMGWYRQAPGKERELVAAISSRTGSTYYADSVKGRFTISRDNAKNTVYLQMNSLKPEDTAVYYCAAPWFRDTRGYSLYDYWGQGTQVTVSS”, the “polyreactivity (PSR sort gate)” value is listed as “high polyreactivity”.

Regarding “QVQLVESGGGLVQAGGSLRLSCAASGSTFKINALGWYIQAPGKERELVALIRASGASTYYADSVKGRFTISRDNAKKTVYLRMNILKPEDTAVYYCAATTRGYKWVGRDYDYWGQGTQVTVSS”, the “polyreactivity (PSR sort gate)” value is “high polyreactivity”.

As for “QVQLVESGGGLVQAGGSLRLSCAASGSTFKIYVMGWYRQAPGKERELVAAISWSGGRTFYADSVKGRFTISRDNAKNTVYLQMNSLKPEDTAVYYCAARWQRYRSGTGDYWGQGTQVTVSS”, the “polyreactivity (PSR sort gate)” value was “high polyreactivity”.
